From US20240189439A1 (Novartis, published 2024) come the findings set out here.

In general, EC50 refers to the concentration needed to bring the measured effect to its halfway point. A higher EC50 goes with lower potency in that assay.

The target of one assay is rat PMEL17 (rat, UniProt D3ZED8 73-680). Kind of assay: FACS titration of IgG on HKB11-rat PMEL17 cells, Alexa Fluor detection antibody. As for the experimental part:
(§1) Purified IgGs were titrated on a variety of PMEL17 expressing and PMEL17 non expressing cell lines (for control) to determine EC50 values. Cells were harvested using Accutase, adjusted to ˜4×10^6 cells/ml into FACS buffer (PBS, 3% FCS and 0.02% Na-Azide) and kept on ice to avoid internalization. 15 μl of cell suspension/well were transferred into 384 well V-bottom plates (Greiner, Cat #781280) and incubated with 15 μl of IgGs at different concentrations (most commonly from 200 to 3.5×10-3 nM) for 1 hour at 4° C., gently shaking. Following incubation, cells were washed three times with FACS buffer. After each washing step, cells were centrifuged (250×g, 5 min, 4° C.) and carefully resuspended. 15 p of detection antibody conjugated to PE (PE-conjugated goat anti-human IgG, F(ab′)₂ fragment specific, 1:150 in FACS buffer; Jackson Immuno Research, #109-116-097) or Alexa Fluor (Alexa Fluor-conjugated goat anti-human IgG, F(ab′)2 fragment specific, 1:150 in FACS buffer; Jackson Immuno Research, #109-606-097) were added and samples were incubated for 45 minutes to 1 hour on ice in the dark, gently shaking. After 3 washing steps, cells were resuspended in 30 μl of FACS buffer and samples were measured using the IntelliCyt HTFC device. EC50 values were calculated using the Graphpad Prism software.

Another assay addresses T1, cyno PMEL17 (cyno, UniProt A0A2K5WWN0 25-668).
T1 construct: whole, on cells; also called HKB11-cyno; HKB11-cyno-PMEL17
T1 sequence: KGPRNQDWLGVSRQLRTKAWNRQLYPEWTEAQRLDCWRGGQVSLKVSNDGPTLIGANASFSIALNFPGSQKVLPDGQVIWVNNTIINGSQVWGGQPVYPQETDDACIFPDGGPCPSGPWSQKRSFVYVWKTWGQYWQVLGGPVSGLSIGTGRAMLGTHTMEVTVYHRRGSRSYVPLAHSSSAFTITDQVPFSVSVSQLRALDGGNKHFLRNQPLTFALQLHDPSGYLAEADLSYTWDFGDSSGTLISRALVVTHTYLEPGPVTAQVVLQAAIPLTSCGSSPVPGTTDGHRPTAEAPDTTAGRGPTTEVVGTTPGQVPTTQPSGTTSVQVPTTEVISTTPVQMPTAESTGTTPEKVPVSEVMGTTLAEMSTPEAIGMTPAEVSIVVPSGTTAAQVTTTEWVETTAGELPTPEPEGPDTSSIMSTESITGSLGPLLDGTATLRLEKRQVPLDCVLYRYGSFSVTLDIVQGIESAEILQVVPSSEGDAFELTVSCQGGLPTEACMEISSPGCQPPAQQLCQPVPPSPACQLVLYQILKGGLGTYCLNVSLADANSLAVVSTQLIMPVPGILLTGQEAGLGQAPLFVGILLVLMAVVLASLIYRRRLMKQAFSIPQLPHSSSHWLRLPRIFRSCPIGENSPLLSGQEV
The experiment in a line: FACS titration of IgG on HKB11-cyno-PMEL17 cells, Alexa Fluor detection antibody. As for the experimental part: as §1

The target of another assay is T2, mouse PMEL17 (mouse, UniProt Q60696 24-626).
T2 construct: whole, on cells; also called B16-F10 (mouse)
T2 sequence (looked up): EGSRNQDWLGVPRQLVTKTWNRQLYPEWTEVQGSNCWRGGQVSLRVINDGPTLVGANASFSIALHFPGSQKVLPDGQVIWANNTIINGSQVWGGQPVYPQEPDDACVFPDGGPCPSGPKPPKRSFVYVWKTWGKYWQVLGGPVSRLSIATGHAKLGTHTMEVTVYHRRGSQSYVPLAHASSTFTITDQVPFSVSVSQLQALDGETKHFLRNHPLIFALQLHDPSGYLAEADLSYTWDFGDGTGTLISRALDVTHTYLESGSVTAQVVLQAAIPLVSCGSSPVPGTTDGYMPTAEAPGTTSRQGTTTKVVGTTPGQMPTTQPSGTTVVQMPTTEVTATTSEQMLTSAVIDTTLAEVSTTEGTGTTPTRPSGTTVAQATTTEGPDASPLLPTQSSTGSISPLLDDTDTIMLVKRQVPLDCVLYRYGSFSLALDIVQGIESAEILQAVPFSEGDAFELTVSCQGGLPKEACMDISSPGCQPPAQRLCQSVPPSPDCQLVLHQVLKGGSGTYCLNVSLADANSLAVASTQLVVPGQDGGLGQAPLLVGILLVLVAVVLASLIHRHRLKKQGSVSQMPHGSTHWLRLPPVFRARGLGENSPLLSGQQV
Kind of assay: FACS titration of IgG on B16-F10 cells (mouse melanoma), Alexa Fluor detection antibody. As for the experimental part:
as §1

Chain of rat PMEL17 (D3ZED8 entry or part of it): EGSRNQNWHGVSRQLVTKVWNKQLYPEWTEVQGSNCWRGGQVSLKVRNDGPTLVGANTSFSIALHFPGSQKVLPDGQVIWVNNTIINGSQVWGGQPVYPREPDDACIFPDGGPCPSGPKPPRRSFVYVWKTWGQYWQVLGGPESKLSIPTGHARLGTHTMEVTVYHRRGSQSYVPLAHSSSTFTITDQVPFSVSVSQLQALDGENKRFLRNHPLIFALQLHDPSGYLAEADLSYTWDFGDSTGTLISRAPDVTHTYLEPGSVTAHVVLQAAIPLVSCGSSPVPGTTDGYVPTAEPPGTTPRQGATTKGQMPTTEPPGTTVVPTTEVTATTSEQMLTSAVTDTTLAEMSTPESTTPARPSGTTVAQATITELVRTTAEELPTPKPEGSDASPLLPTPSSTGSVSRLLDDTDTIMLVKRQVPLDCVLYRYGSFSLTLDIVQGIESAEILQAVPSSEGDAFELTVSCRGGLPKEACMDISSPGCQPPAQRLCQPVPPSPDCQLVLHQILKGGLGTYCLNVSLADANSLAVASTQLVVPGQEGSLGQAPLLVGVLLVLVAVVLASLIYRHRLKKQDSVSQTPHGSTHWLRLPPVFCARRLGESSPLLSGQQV

B1: MOR024354 (antibody, V domains shown)
VH: QVQLLESGGGLVQPGGSLRLSCAASGFTFSSFGMSWVRQAPGKGLEWVSAISYSGSDTYYADSVKGRFTISRDNSKNTLYLQMNSLRAEDTAVYYCARDVGVMDYWGQGTLVTVSS
VL: SYELTQPLSVSVALGQTARITCSGDNLGTYYAHWYQQKPGQAPVLVIYSQSHRPSGIPERFSGSNSGNTATLTISRAQAGDEADYYCGAWDAPSPELVFGGGTKLTVL
notes: Tested as purified human IgG
With B1, the figures for the EC50 with rat PMEL17 and with cyno PMEL17 were 2.4 nM and 2.1 nM, respectively.

B2: Y010356 (antibody, V domains shown)
VH: EVQLVESGGGLVKPGGSLRLSCAASGFTFSNYWISWVRQAPGKGLEWVGRIKSKTYGGTTDYAEPVKGRFTISRDDSKNTLYLQMNSLKTEDTAVYYCARVSGYYSHSGGFDVWGQGTLVTVSS
VL: DIQMTQSPSSLSASVGDRVTITCRASQGISNYLAWYQQKPGKVPKLLIYAASTLQSGVPSRFSGSGSGTDFTLTISSLQPEDVATYYCQKTWRTPGTFGQGTKVEIK
notes: Tested as purified human IgG
For the molecule B2, the concentration for a half-maximal effect (EC50) with rat PMEL17 worked out at 1.4 nM; with cyno PMEL17, 4.5 nM; with mouse PMEL17 it was 1.4 nM.

B3: MOR024353 (antibody, V domains shown)
VH: QVQLVQSGAEVKKPGSSVKVSCKASGGTFSDYAISWVRQAPGQGLEWMGGIIPIFGDANYAQKFQGRVTITADESTSTAYMELSSLRSEDTAVYYCAREGSSYFYMAYWGQGTLVTVSS
VL: SYELTQPLSVSVALGQTARITCSGDNIGSKLASWYQQKPGQAPVLVIYDDSNRPSGIPERFSGSNSGNTATLTISRAQAGDEADYYCAATAGDRWAYVFGGGTKLTVL
notes: Tested as purified human IgG
For B3, the EC50 came to 7.5 nM with rat PMEL17 and 1.6 nM in the assay with cyno PMEL17.

B4: Y010906 (antibody, V domains shown)
VH: EVQLVESGGGLVKPGGSLRLSCAASGFTFSNAWMSWVRQAPGKGLEWVGRIKSKTDAGTTDYAAPVKGRFTISRDDSKNTLYLQMNSLKTEDTAVYYCARDEYPWGWFDVWGQGTLVTVSS
VL: DIQMTQSPSSVSASVGDRVTITCRASQGISSWLAWYQQKPGKAPKLLIYAASSLQSGVPSRFSGSGSGTDFTLTISSLQPEDFATYYCQQYIFYPLTFGQGTKVEIK
notes: Tested as purified human IgG
As for B4, the EC50 with rat PMEL17 worked out at 21.7 nM; with cyno PMEL17, 2 nM; with mouse PMEL17, 140 nM.

B5: Y010903 (antibody, V domains shown)
VH: EVQLVESGGGLVKPGGSLRLSCAASGFTFSNAWMSWVRQAPGKGLEWVGRIKSKTDAGTTDYAAPVKGRFTISRDDSKNTLYLQMNSLKTEDTAVYYCARASHRLHSLFDVWGQGTLVTVSS
VL: DIQMTQSPSTLSASVGDRVTITCRASQSISSWLAWYQQKPGKAPKLLIYDASSLESGVPSRFSGSGSGTEFTLTISSLQPEDFATYYCQQGLFYPHTFGQGTKVEIK
notes: Tested as purified human IgG
Turning to B5, the results for the EC50 with rat PMEL17, with cyno PMEL17 and with mouse PMEL17 were 5.6 nM, 2 nM and 928 nM, respectively.

B6: Y010910 (antibody, V domains shown)
VH: EVQLVESGGGLVKPGGSLRLSCAASGFTFSNAWMSWVRQAPGKGLEWVGRIKSKTDAGTTDYAAPVKGRFTISRDDSKNTLYLQMNSLKTEDTAVYYCARVASPSAPGGFDYWGQGTLVTVSS
VL: DIQMTQSPSSLSASVGDRVTITCRASQGISNYLAWYQQKPGKVPKLLIYAASTLQSGVPSRFSGSGSGTDFTLTISSLQPEDVATYYCQQSLFAPFTFGQGTKVEIK
notes: Tested as purified human IgG
On to B6, for which the EC50 stood at 13.7 nM with rat PMEL17, 3.5 nM with cyno PMEL17 and 41.1 nM with mouse PMEL17.

B7: Y010900 (antibody, V domains shown)
VH: EVQLVESGGGLVKPGGSLRLSCAASGFTFSNAWMSWVRQAPGKGLEWVGRIKSKTDAGTTDYAAPVKGRFTISRDDSKNTLYLQMNSLKTEDTAVYYCARTIYPSAPSSSLDYWGQGTLVTVSS
VL: DIQMTQSPSSLSASVGDRVTITCRASQGISNYLAWYQQKPGKVPKLLIYAASTLQSGVPSRFSGSGSGTDFTLTISSLQPEDVATYYCQQLIFFPLTFGQGTKVEIK
notes: Tested as purified human IgG
Regarding B7, the results for the EC50 with rat PMEL17 and with cyno PMEL17 were 9.3 nM and 1.2 nM, respectively.

B8: Y010355 (antibody, V domains shown)
VH: EVQLVESGGGLVKPGGSLRLSCAASGFTFSNYWISWVRQAPGKGLEWVGRIKSKTYGGTTDYAEPVKGRFTISRDDSKNTLYLQMNSLKTEDTAVYYCARTSRRSYAFDYWGQGTLVTVSS
VL: DIQMTQSPSTLSASVGDRVTITCRASQSISSWLAWYQQKPGKAPKLLIYDASSLESGVPSRFSGSGSGTEFTLTISSLQPEDFATYYCQQITRYPVTFGQGTKVEIK
notes: Tested as purified human IgG
Regarding B8, the EC50 is 0.8 nM with rat PMEL17, 3.9 nM in the assay with cyno PMEL17 and 0.8 nM with mouse PMEL17.

B9: Y010417 (antibody, V domains shown)
VH: EVQLVQSGAEVKKPGESLKISCKGSGYSFTSYWIGWVRQMPGKGLEWMGIIYPGDSDTRYSPSFQGQVTISADKSISTAYLQWSSLKASDTAMYYCARGSSAASGLSGDLWGQGTLVTVSS
VL: DIQMTQSPSSLSASVGDRVTITCRASQSISSYLNWYQQKPGKAPKLLIYAASSLQSGVPSRFSGSGSGTDFTLTISSLQPEDFATYYCQQDYYSPFTFGQGTKVEIK
notes: Tested as purified human IgG
With B9, the EC50 with cyno PMEL17 amounted to 6.3 nM. This counts as single-digit nanomolar.

B10: Y010415 (antibody, V domains shown)
VH: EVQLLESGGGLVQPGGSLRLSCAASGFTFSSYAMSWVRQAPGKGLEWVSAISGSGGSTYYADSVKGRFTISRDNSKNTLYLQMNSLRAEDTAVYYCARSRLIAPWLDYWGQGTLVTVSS
VL: DIQMTQSPSSLSASVGDRVTITCRASQSISSYLNWYQQKPGKAPKLLIYAASSLQSGVPSRFSGSGSGTDFTLTISSLQPEDFATYYCQQVYGSPPTFGQGTKVEIK
notes: Tested as purified human IgG
Regarding B10, the EC50 with rat PMEL17 stood at 0.4 nM; with cyno PMEL17, 5.4 nM.

B11: Y010429 (antibody, V domains shown)
VH: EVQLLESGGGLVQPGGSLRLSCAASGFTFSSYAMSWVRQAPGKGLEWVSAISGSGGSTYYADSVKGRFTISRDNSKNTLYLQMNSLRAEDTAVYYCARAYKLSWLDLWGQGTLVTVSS
VL: DIQMTQSPSSLSASVGDRVTITCRASQSISSYLNWYQQKPGKAPKLLIYAASSLQSGVPSRFSGSGSGTDFTLTISSLQPEDFATYYCQQVWYAPVTFGQGTKVEIK
notes: Tested as purified human IgG
For B11, the 50% effective concentration (EC50) with rat PMEL17 was found to be 1.5 nM; with cyno PMEL17 it was 10.7 nM; with mouse PMEL17 it was 60.2 nM.
